In patent US20110143953A1 one finds Kd data, which are given here for one molecule.

Test [1] deals with transferrin, P02787. Description: SPR. Background: In SPR one partner is held on a chip, and binding of the other changes the refractive index at the surface.
The target in test [2] is AKT1 (as used in SPR), P31749. Description: SPR.
For test [3], the target named is transferrin, P02787. Put plainly: SPR, transferrin immobilized, Kd from kinetics.

Sequence of transferrin, P02787 (P02787 20-698 limits assumed): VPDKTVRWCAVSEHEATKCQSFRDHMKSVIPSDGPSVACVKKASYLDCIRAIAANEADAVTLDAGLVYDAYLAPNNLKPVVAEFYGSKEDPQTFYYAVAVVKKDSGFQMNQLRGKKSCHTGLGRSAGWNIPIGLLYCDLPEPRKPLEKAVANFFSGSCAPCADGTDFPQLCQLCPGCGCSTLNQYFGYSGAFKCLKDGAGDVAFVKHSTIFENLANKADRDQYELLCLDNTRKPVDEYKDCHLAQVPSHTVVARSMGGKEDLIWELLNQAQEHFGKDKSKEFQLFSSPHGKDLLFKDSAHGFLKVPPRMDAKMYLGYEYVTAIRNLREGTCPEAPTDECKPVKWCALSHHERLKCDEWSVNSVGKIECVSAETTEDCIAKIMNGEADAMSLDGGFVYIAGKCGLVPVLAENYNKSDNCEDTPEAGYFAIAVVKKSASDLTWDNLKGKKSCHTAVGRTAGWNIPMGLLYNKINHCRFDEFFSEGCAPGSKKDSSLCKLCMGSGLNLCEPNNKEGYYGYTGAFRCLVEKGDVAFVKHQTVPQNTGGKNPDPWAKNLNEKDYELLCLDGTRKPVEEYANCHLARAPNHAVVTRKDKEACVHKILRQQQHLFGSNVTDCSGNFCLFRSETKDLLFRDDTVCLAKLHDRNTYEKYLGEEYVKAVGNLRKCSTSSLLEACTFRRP
Sequence of AKT1 (as used in SPR), P31749 (P31749 whole entry): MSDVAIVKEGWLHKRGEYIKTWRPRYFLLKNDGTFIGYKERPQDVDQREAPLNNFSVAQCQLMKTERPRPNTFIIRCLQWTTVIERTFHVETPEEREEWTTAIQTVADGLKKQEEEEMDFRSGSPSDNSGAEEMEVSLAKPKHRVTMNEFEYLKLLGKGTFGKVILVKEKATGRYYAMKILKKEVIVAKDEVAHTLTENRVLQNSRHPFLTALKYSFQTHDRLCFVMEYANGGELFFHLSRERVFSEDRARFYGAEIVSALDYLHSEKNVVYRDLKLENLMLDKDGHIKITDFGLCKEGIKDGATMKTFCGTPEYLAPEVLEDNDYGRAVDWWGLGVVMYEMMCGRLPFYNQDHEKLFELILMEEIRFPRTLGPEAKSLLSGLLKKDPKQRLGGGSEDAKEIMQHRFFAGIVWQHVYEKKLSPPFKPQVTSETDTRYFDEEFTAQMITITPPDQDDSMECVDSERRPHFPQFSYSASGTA

B1: SYN23-26 (designed binder)
peptide 1: FRGWAHIFFGPHVIYRGGSG
peptide 2: AHKVVPQRQIRHAYNRYGSG
modifications: not fully specified; C-terminal glycine joined to one of the two amines (alpha or epsilon) of a lysine linker; chain 1 pos 20 and chain 2 pos 20: the C-terminal Gly of each 20-mer is joined to the alpha or the epsilon amine of one branching lysine (about 1 nm spacing). The lysine is followed by a C-terminal cysteine whose thiol is biotinylated for the array. The Lys-Cys core is left out of the …
Turning to B1, the Kd – broadly, the equilibrium constant for the complex coming apart – with transferrin, P02787 [1] is 141 nM; in test [2] it was 1 nM; in the test with transferrin, P02787 [3], 150 nM.
